Source: patent US20080292632A1 (US Dept. of Health and Human Services, published 2008)

Legend:
[1] = target: T1, IRTA2 extracellular domain-Fc fusion protein (human, UniProt Q96RD9 16-851); assay: equilibrium ELISA (Friguet)
T1 construct: extracellular domain; also called IRTA2-Fc; IRTA2-HFc; not shown: human IgG1 hinge and Fc
T1 sequence (looked up): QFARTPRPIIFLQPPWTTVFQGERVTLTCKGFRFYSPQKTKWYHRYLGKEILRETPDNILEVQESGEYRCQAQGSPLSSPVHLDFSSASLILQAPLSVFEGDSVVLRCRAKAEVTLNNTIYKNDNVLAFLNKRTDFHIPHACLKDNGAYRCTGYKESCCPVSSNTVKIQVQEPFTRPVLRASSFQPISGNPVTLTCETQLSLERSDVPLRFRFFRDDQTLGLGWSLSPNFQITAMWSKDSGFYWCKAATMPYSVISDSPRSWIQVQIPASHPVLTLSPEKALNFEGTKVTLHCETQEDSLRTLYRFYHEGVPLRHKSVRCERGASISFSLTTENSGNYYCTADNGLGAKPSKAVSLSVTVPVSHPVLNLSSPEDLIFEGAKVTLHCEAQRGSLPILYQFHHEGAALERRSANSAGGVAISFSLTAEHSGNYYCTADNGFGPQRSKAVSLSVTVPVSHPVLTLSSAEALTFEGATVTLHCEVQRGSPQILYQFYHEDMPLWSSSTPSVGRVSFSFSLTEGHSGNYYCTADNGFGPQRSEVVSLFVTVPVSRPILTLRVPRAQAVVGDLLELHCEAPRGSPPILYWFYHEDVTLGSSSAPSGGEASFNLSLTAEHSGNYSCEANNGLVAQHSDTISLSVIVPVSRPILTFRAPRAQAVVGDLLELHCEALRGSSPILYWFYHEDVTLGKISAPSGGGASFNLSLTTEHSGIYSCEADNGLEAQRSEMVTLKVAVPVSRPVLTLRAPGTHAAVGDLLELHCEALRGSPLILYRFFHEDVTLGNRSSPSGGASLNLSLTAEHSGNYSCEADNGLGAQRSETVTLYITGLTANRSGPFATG
Procedure: ELISA. In a typical indirect ELISA for the screening of hybridomas, microtiter plates (MaxiSorp; Nalge Nunc, Rochester, N.Y.) were coated with 100 ng/50 μl/well of goat anti-human IgG in phosphate buffered saline (PBS) for 2 hours at room temperature. Next, 50 ng/100 μl/well of IRTA2-Fc in blocking buffer (25% DMEM, 5% FBS, 25 mM HEPES, 0.5% bovine serum albumin, 0.1% sodium azide in PBS) was added to each well and incubated for 2 hours at room temperature. After washing with PBS containing 0.05% Tween 20, 50 μl of the hybridoma supernatants were added and incubated for 2 hours at room temperature. After washing, the bound MAbs were detected by a 2-hour incubation with horseradish peroxidase (HRP)-labeled goat anti-mouse IgG (Jackson ImmunoResearch, Grove, Pa.) followed by tetramethylbenzidine (TMB) substrate kit (Pierce, Rockford, Ill.). In some experiments, other IRTA-Fc fusion proteins were used instead of IRTA2-Fc.
Affinity Determination. Affinities (dissociation constant, Kd) of the anti-IRTA2 MAbs to IRTA2-Fc were determined by ELISA as previously described (Friguet et al., J Immunol Methods 77:305-19, 1985). Briefly, each MAb was incubated with various concentrations of IRTA2-Fc at room temperature for 20 hours to reach equilibrium; then the amount of MAb that remains unbound at equilibrium was measured by the indirect ELISA as described above.

[2] = target: T2, IRTA5, full-length, on transfected 293T cells (human, UniProt Q96LA6 17-429); assay: FACS on transfected 293T (summary with IRTA-Fc ELISA, FIG. 2A and B)
T2 sequence: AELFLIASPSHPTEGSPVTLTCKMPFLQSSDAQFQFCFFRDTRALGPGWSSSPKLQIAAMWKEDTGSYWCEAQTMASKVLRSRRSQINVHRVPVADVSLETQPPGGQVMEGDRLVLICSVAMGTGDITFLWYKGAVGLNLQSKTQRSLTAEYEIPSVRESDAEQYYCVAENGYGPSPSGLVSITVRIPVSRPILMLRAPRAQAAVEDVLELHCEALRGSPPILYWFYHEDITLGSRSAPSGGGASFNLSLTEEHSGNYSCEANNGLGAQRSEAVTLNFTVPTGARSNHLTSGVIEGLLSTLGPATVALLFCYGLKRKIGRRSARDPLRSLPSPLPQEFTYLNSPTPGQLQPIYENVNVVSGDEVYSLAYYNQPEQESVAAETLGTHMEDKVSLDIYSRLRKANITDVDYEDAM
Procedure: FIGS. 2A-B are a bar graph and a set of plots showing the cross-reactivity of the anti-IRTA2 MAbs to other IRTA family members. FIG. 2A is a bar graph of the results from an ELISA of anti-IRTA2 MAbs to various Fc-fusion proteins. Each Fc-fusion protein indicated on the top of the column was captured on ELISA plates using secondary antibody (goat anti-human IgG). After washing, 100 ng/50 μl/well of MAbs were added, followed by HRP-labeled goat anti-mouse IgG and TMBZ substrate. The signals in ELISA were normalized for the amounts of each Fc-fusion protein on the plates using HRP-goat anti-human Fc. The controls are MAbs 9E10 (anti-myc tag, IgG1), BerH2 (anti-CD30, IgG1), T408 (anti-CD30, IgG2a), T420 (anti-CD30, IgG2b) and HRP-goat anti-human Fc (1/2400 dilution). […] Two days after transfection, the cells were harvested and incubated with 200 ng/100 μl of each MAb, followed by PE-conjugated goat anti-mouse IgG F(ab′)2. […] In the positive control panels, the MAbs cross-reactive to other IRTAs were used. They are F26 (anti-IRTA1 and anti-IRTA2, IgG2b), F109 (anti-IRTA3, IgG2b), F47 (anti-IRTA4, IgG2a), and F69 (anti-IRTA5, IgG2a). BerH2 (anti-CD30, IgG1) was also used. “+” indicates more than 1.5-fold than that of the control; “++” indicates more than 10-fold mean fluorescence intensity than that of the negative control.

Kd [1]: 1.2 nM
binding result [2]: no binding
B1: F25 (antibody, IgG2a, V domains shown)
VH: EVQLQQSGPELVKPGTSVKMSCKASGYSFTGYFMNWMMQNHGKSLEWIGRINLYNGDTFYNQKFKDKATLTVDKSSNTVHMEFRSLASEDSAVYYCASSLYYFDYWGQGTTFTVSS
VL: DIVMTQSHKFMSTSVGDRVNITCKASQDVGTNVAWYQQKPGQSPKLLIYWASTRQTGVPDRFTGSGSGTDFTLTISNVQSEDLSDYFCQQYSSYPLTFGAGTKLELKR
notes: mouse hybridoma MAb, IgG2a, kappa; also called MAb F25; biotin-MAb F25
